Paper doi:10.1101/2025.08.19.671159

Target: 14-3-3ζ of the Tni-FNL-produced BRAF complexes (human) (UniProt P63104)
Test: cryo-EM structure; BRAF:14-3-3_(2):MEK complex co-expressed in Tni-FNL insect cells and purified as a complex; 3.8 Å

With “14-3-3ζ of the Tni-FNL-produced BRAF complexes (from UniProt P63104 1-245) (natural protein)” the stoichiometry N was 2.
